# From patent publication US20260166131A1, “METHOD FOR PROMOTING PATHOLOGICAL TDP-43 PROTEIN DEGRADATION, AND DRUG” (TALENGEN INTERNATIONAL LIMITED, priority 2022, published 2026)
# Like-named read-outs stand apart in the source and are kept apart here.
# B1: plasminogen: human plasminogen purified from human donor plasma, in which human Lys-plasminogen and Glu-plasminogen are >98% (protein)
# chain: KVYLSECKTGNGKNYRGTMSKTKNGITCQKWSSTSPHRPRFSPATHPSEGLEENYCRNPDNDPQGPWCYTTDPEKRYDYCDILECEEECMHCSGENYDGKISKTMSGLECQAWDSQSPHAHGYIPSKFPNKNLKKNYCRNPDRELRPWCFTTDPNKRWELCDIPRCTTPPPSSGPTYQCLKGTGENYRGNVAVTVSGHTCQHWSAQTPHTHNRTPENFPCKNLDENYCRNPDGKRAPWCHTTNSQVRWEYCKIPSCDSSPVSTEQLAPTAPPELTPVVQDCYHGDGQSYRGTSSTTTTGKKCQSWSSMTPHRHQKTPENYPNAGLTMNYCRNPDADKGPWCFTTDPSVRWEYCNLKKCSGTEASVVAPPPVVLLPDVETPSEEDCMFGNGKGYRGKRATTVTGTPCQDWAAQEPHRHSIFTPETNPRAGLEKNYCRNPDGDVGGPWCYTTNPRKLYDYCDVPQCAAPSFDCGKPQVEPKKCPGRVVGGCVAHPHSWPWQVSLRTRFGMHFCGGTLISPEWVLTAAHCLEKSPRPSSYKVILGAHQEVNLEPHVQEIEVSRLFLEPTRKDIALLKLSSPAVITDKVIPACLPSPNYVVADRTECFITGWGETQGTFGAGLLKEAQLPVIENKVCNRYEFLNGRVQSTELCAGHLAGGTDSCQGDSGGPLVCFEKDKYILQGVTSWGLGCARPNKPGVYVRVSRFVTWIEGVMRNN
# Tests used:
# [1] = Plasmin activity in brain homogenate of FAD mice (enzyme substrate kinetic method); format: in vivo, mouse; details: 2 hours
# Protocol: 85 μL/well of seven different concentrations of standard solution, blank, and sample were added to the ELISA plate (manufacturer: NUNC, catalog number: 446469) in sequence, and then 15 μL of 20 mM S-2251 solution (manufacturer: Chromogenix, catalog number: 82033239) was added to each well to incubate at 37° C. Starting from 0 min of reaction, the A405 absorbance value was read in a multifunctional microplate reader every 5 min until the reaction time was 90 min. All reactions were fitted with a straight line by time and absorbance, and the slope of the straight line was the reaction rate of the standard/sample (ΔA405/min). Finally, the potency value of the standard substance and ΔA405/min were used to create a standard curve to calculate the potency of the measured samples. The plasmin activity per unit of total protein in each sample was calculated.
# TDP-43 = molecular target: T1, TDP-43 (Homo sapiens, UniProt Q13148); assay: Cleavage of TDP-43 protein in brain homogenate of ALS model (SOD1-G93A) mice (Western blot); format: biochemical; details: SOD1-G93A mouse brain homogenate + recombinant TDP-43, 37° C. 3 h, vs vehicle control group
# T1 construct: purchased Nanjing GenScript Biotechnology Co., Ltd. C134WHE160-2/P5HF001
# Protocol: Four B6.Cg-Tg (SOD1-G93A) 1Gur/J transgenic male mice (referred to as SOD1-G93A transgenic mice) were sacrificed, and the whole brain was taken out to weigh. 1×PBS was added at 150 mg tissue/mL PBS (Thermo Fisher, pH 7.4; 10010-031) to homogenize at 4° C. (1 min, 3-4 times). After homogenization, the supernatant, i.e., the brain homogenate was taken out to place in a new EP tube.
# Eppendorf (EP) tubes were set as: (1) blank group, (2) blank control group, (3) vehicle control group, and (4) plasminogen group, with 5 parallels in each group. The blank group was added with 21.5 μL of normal saline, 4.6 μL of vehicle solution (10 mM sodium citrate, 2% arginine hydrochloride, 3% mannitol, pH 7.4), and 23.9 μL of mouse brain homogenate; the blank control group was added with 21.5 μL of normal saline, 2.3 μL of plasminogen solution (2 mg/mL), and 23.9 μL of mouse brain homogenate; the vehicle control group was added with 20.5 μL of TDP-43 (Nanjing GenScript Biotechnology Co., Ltd., custom-expressed human TDP-43, C134WHE160-2/P5HF001, 1.05 mg/mL), 4.6 μL of vehicle solution, and 23.9 μL of mouse brain homogenate; the plasminogen group was added with 20.5 μL of TDP-43 (1.05 mg/mL), 2.3 μL of plasminogen solution (2 mg/mL), and 23.9 μL of mouse brain homogenate. After adding the samples of each group, they were incubated at 37° C. for 3 h, and then 50 μL of 0.1% trifluoroacetic acid solution was added to terminate the reaction.
# A 12% gel was prepared according to the SDS-PAGE gel preparation instructions. Each group of samples was mixed with 4× loading buffer (TaKaRa, e2139) at a volume ratio of 3:1, heating at 100° C. for 5 min, cooling and centrifuging for 2 min, and then 20 μL was taken for sample loading. […] After washing 4 times with TBST, the PVDF membrane was placed on a clean imaging plate, Immobilon Western HRP Substrate (MILLIPORE, WBKLS0100) was added for color development, and the membrane was photographed under a biomolecular imager, then performing quantitative analysis by using Image J.
# [2] = Parkinson's model mice, 50 mg/kg tail vein
# Protocol: Eighteen 6-week-age male C57BL/6J mice were injected intraperitoneally with 1-methyl-4-phenyl-1,2,3,6-tetrahydropyridine (MPTP) solution at a dose of 35 mg/kg/mouse for 5 consecutive days to establish a Parkinson's model. Preparation of MPTP solution: 45 mg of MPTP (Sigma, M0896) was dissolved in 9 ml of physiological saline solution to prepare a final concentration of 5 mg/ml. The mice were randomly divided into two groups according to their body weight: 6 mice in vehicle group, 12 mice in plasminogen group; and administration was begun to record as day 1. The mice in the plasminogen group were injected with 50 mg/kg body weight of plasminogen solution by tail vein, and the mice in the vehicle group were injected with 5 mL/kg body weight of vehicle solution (10 mM citric acid-sodium citrate solution, pH 7.4) by tail vein.
# T1 sequence (Q13148 whole entry): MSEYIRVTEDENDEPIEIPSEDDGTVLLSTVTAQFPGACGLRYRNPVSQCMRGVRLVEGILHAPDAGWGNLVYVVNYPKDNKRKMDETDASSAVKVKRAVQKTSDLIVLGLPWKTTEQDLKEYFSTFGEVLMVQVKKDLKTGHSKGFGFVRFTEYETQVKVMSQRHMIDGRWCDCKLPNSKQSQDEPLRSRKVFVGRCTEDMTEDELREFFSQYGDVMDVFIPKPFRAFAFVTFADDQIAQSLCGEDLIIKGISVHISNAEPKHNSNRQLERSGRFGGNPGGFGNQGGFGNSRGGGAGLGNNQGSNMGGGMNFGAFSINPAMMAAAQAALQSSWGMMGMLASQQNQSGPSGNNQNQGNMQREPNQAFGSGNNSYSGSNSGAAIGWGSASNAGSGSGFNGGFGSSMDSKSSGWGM
molecule,measurement,setting,value
B1,plasmin activity level in brain tissue,"[1]; tail vein injection of 6 mg/kg, 6 mg/kg",increases significantly
same,plasmin activity level in brain tissue,"[1]; tail vein injection of 50 mg/kg, 50 mg/kg",increases significantly
same,"level in brain tissue, 50 mg/kg group compared with 6 mg/kg group",[1]; tail vein,significantly higher
same,amount of TDP-43 monomer,TDP-43,significantly lower
same,amount of high molecular weight TDP-43 protein (HMW),TDP-43,significantly lower
same,amount of low molecular weight TDP-43 fragment (LMW),TDP-43,significantly lower
same,ratio of brain tissue plasminogen level to blood plasminogen level,[2]; 2 hours,3.47%
same,ratio of spinal cord tissue plasminogen level to blood plasminogen level,[2]; 2 hours,1.24%
same,ratio of brain tissue plasminogen level to blood plasminogen level,[2]; 6 hours,4.18%
same,ratio of spinal cord tissue plasminogen level to blood plasminogen level,[2]; 6 hours,1.16%
same,ratio of brain tissue plasminogen level to blood plasminogen level,[2]; 12 hours,8.51%
same,ratio of spinal cord tissue plasminogen level to blood plasminogen level,[2]; 12 hours,1.46%
